According to paper PMC9705548, “Altered tRNA processing is linked to a distinct and unusual La protein in Tetrahymena thermophila”:
Changes are numbered by the printed parent chain.

Columns and labels:
Mlp1 1-95 = target: T1, Mlp1 1-95 (Tetrahymena thermophila, UniProt Q23RK6 1-95); test: EMSA; EMSA: 20 mM Tris-HCl pH 7.4, 100 mM KCl, 1 mM EDTA, 5 mM beta-mercaptoethanol, 10% glycerol; ~0.1 nM RNA refolded from 95 C; 30 min at 30 C; 8% native PAGE at 4 C; conditions: protein: recombinant; tags: N-terminal 6xHis (pET28a); label: 32P
T1 sequence: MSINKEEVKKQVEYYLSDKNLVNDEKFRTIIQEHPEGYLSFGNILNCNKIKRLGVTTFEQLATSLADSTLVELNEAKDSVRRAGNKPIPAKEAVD

Mlp1 95-250 = target: T2, Mlp1 95-250 (Tetrahymena thermophila, UniProt Q23RK6 95-250); test: as above; conditions: protein: recombinant; tags: N-terminal 6xHis (pET28a); label: 32P
T2 sequence: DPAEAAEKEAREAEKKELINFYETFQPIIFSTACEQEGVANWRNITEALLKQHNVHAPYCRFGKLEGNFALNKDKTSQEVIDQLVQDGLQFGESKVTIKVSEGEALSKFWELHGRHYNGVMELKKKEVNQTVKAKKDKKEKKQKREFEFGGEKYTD

Mlp1 [1] = target: T3, Mlp1 (Tetrahymena thermophila, UniProt Q23RK6 1-340); test: EMSA; 20 mM Tris-HCl pH 7.4, 100 mM KCl, 1 mM EDTA, 5 mM beta-mercaptoethanol, 10% glycerol; ~0.1 nM RNA; 30 min at 30 C; 8% native PAGE at 4 C; conditions: protein: recombinant, tags: N-terminal 6xHis (pET28a)
T3 sequence: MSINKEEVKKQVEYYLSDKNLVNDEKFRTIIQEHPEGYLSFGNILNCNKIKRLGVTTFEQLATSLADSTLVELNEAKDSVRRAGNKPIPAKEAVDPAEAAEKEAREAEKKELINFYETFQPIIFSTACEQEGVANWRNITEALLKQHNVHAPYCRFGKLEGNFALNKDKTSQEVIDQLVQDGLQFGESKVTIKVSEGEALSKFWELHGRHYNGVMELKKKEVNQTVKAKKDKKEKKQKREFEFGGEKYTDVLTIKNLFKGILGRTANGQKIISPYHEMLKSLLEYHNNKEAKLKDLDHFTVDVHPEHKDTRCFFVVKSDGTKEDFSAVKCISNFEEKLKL

Mlp1 1-250 = target: T4, Mlp1 1-250 (Tetrahymena thermophila, UniProt Q23RK6 1-250); test: EMSA; EMSA: 20 mM Tris-HCl pH 7.4, 100 mM KCl, 1 mM EDTA, 5 mM beta-mercaptoethanol, 10% glycerol; ~0.1 nM RNA refolded from 95 C; 30 min at 30 C; 8% native PAGE at 4 C; conditions: protein: recombinant; tags: N-terminal 6xHis (pET28a)
T4 sequence: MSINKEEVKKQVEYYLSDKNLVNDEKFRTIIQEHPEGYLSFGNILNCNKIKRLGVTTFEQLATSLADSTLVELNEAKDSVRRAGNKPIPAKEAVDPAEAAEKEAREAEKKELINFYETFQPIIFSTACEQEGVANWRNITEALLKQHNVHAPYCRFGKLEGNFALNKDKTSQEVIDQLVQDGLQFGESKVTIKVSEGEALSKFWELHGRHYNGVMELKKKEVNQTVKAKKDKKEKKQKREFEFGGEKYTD

Mlp1 [2] = target: T3, Mlp1; test: as above; conditions: protein: recombinant, tags: N-terminal 6xHis (pET28a)
Mlp1 Q11A/Y14A = target: T5, Mlp1 Q11A/Y14A (Tetrahymena thermophila, UniProt Q23RK6 1-340, Q11A;Y14A); test: as above; conditions: protein: recombinant; tags: N-terminal 6xHis (pET28a)
T5 sequence: T3 sequence with Q11A, Y14A

Mlp1 [3] = target: T3, Mlp1; test: competition; EMSA: 20 mM Tris-HCl pH 7.4, 100 mM KCl, 1 mM EDTA, 5 mM beta-mercaptoethanol, 10% glycerol; ~0.1 nM RNA refolded from 95 C; 30 min at 30 C; 8% native PAGE at 4 C; conditions: protein: recombinant; tags: N-terminal 6xHis (pET28a); label: none
hLa = target: T6, hLa (Homo sapiens, UniProt P05455 1-408); test: as above; conditions: protein: recombinant; tags: 6xHis (encoded in reverse primer, pET28a); label: none
T6 sequence: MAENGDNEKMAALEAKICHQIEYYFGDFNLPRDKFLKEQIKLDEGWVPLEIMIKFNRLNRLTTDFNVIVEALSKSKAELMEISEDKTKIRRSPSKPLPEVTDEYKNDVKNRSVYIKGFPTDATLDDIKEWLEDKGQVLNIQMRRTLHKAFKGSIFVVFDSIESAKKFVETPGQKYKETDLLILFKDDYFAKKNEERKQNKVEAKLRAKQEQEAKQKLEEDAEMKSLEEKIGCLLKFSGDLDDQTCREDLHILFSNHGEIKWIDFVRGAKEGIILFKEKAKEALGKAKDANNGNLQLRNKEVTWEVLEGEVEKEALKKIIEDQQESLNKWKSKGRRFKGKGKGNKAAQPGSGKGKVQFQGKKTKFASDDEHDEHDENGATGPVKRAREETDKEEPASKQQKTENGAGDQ

[4] = label: 32P-UTP body label, tRNA fold

B1: uridylate RNA of Supplementary Fig. S4b (ssRNA)
RNA: CUGCUGUUUU
- binding result (Mlp1 1-95): no binding
- binding result (Mlp1 95-250): no binding

B2: pre-tRNA LeuAAG 5' 3' (structured_RNA)
RNA: GAGCGAAGAUGAAGUGGCCGAGCGGUCUAAGGCGGUAGAUUAAGGCUCUAUUCCGAAAGGGCGCGAGUUCGAAUCUCGCCUUCAUCAGAUUUUU
- Kd (Mlp1 [1]; tRNA fold): 586 ± 15 nM

B3: pre-tRNA LeuAAG 3'-trailer only (structured_RNA)
RNA: GAUGAAGUGGCCGAGCGGUCUAAGGCGGUAGAUUAAGGCUCUAUUCCGAAAGGGCGCGAGUUCGAAUCUCGCCUUCAUCAGAUUUUU
- Kd (Mlp1 [1]; label: 32P-UTP body label): 658 ± 36 nM

B4: pre-tRNA GlnUUA 5' 3' (structured_RNA)
RNA: GCAUGUCCGGUUCCAUAGUAUAGUGGUUAGUACUGGGGACUUUAAAUCCCUUGACCUGGGUUCGAAUCCCAGUGGGACCUGCUUUUU
- Kd (Mlp1 [1]; [4]): 687 ± 44 nM

B5: 4U (CUGCUGUUUU-3'OH) (ssRNA)
RNA: CUGCUGUUUU
- binding result (Mlp1 1-250): binds
- binding result (Mlp1 [2]): binds
- binding result (Mlp1 Q11A/Y14A): no binding

B6: U-1C (ssRNA)
RNA: CUGCUGUUUC
- binding result (Mlp1 [3]): binds

B7: 4C (ssRNA)
RNA: CUGCUGCCCC
- binding result (hLa): no binding

B8: C10 (ssRNA)
RNA: CCCCCCCCCC
- binding result (Mlp1 [2]; label: 32P): no binding

B9: mature tRNA LeuAAG (structured_RNA)
RNA: GAUGAAGUGGCCGAGCGGUCUAAGGCGGUAGAUUAAGGCUCUAUUCCGAAAGGGCGCGAGUUCGAAUCUCGCCUUCAUCA
- Kd (Mlp1 [1]; tRNA fold): 831 ± 33 nM

B10: U-2C (ssRNA)
RNA: CUGCUGUUCU
- binding result (Mlp1 [3]): binds

B11: pre-tRNA LeuAAG 5'-leader only (+5'PPP) (structured_RNA)
RNA: GAGCGAAGAUGAAGUGGCCGAGCGGUCUAAGGCGGUAGAUUAAGGCUCUAUUCCGAAAGGGCGCGAGUUCGAAUCUCGCCUUCAUCA
- Kd (Mlp1 [1]; tRNA fold): 714 ± 21 nM

B12: mature tRNA GlnUUA (structured_RNA)
RNA: GGUUCCAUAGUAUAGUGGUUAGUACUGGGGACUUUAAAUCCCUUGACCUGGGUUCGAAUCCCAGUGGGACCU
- Kd (Mlp1 [1]; [4]): 801 ± 62 nM

B13: pre-tRNA GlnUUA 5'-leader only (structured_RNA)
RNA: GCAUGUCCGGUUCCAUAGUAUAGUGGUUAGUACUGGGGACUUUAAAUCCCUUGACCUGGGUUCGAAUCCCAGUGGGACCU
- Kd (Mlp1 [1]; label: 32P-UTP body label): 804 ± 16 nM

B14: U-3C (ssRNA)
RNA: CUGCUGUCUU
- binding result (Mlp1 [3]): binds

B15: pre-tRNA GlnUUA 3'-trailer only (structured_RNA)
RNA: GGUUCCAUAGUAUAGUGGUUAGUACUGGGGACUUUAAAUCCCUUGACCUGGGUUCGAAUCCCAGUGGGACCUGCUUUUU
- Kd (Mlp1 [1]; label: 32P-UTP body label): 740 ± 40 nM
